Results from the supplement of paper PMC10567573.

B1: TRAF3IP2 (parent)
chain: KQGSMNFRFIPVLFPNAKKEHVPT

Variants of: B1
Experiment: protein stability index of a GFP-peptide fusion (GPS, HEK-293T) (PSI 1-6); higher = more stable
Conditions: c terminus: a fixed tail appended
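Note: lentivirally expressed fusions sorted by FACS into six bins by GFP to DsRed ratio, PSI derived from sequencing read proportions per bin multiplied by bin number.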

Compared with KQGSMNFRFIPVLFPNAKKNHVPT, KQGSMNFRFIPSLFPNAKKEHVPT is higher in protein stability index: 2.15 for the first, 2.35 for the second.

Going from KQGSMNFRFIPLLFPNAKKEHVPT to KQGSMNFRFIPKLFPNAKKEHVPT, the protein stability index rises from 2.12 to 2.39.

Going from KQGSMNFRFIPILFPNAKKEHVPT to KQGSMRFRFIPVLFPNAKKEHVPT, the protein stability index falls from 2.14 to 1.66.

Compared with KQGSMKFRFIPVLFPNAKKEHVPT, KQGSMVFRFIPVLFPNAKKEHVPT is higher in protein stability index: 1.6 for the first, 1.93 for the second.

Going from KQGSMSFRFIPVLFPNAKKEHVPT to KQGSMAFRFIPVLFPNAKKEHVPT, the protein stability index falls from 1.96 to 1.76.

Compared with KQGSMEFRFIPVLFPNAKKEHVPT, KQGSMNFRFVPVLFPNAKKEHVPT is lower in protein stability index: 2.1 for the first, 1.31 for the second.

Compared with KQGSMNFRFDPVLFPNAKKEHVPT, KQGSMNFRFPPVLFPNAKKEHVPT is higher in protein stability index: 3.37 for the first, 3.42 for the second.

First: KQGSMNFRFRPVLFPNAKKEHVPT
Second: KQGSMNFRFGPVLFPNAKKEHVPT
The protein stability index of the first is lower: 2.75 for the first, 2.76 for the second.

First: KQGSMNFRFYPVLFPNAKKEHVPT
Second: KQGSMNFRFHPVLFPNAKKEHVPT
The protein stability index of the first is higher: 2.29 for the first, 1.67 for the second.

Going from KQGSMNFRFWPVLFPNAKKEHVPT to KQGSMNFRFLPVLFPNAKKEHVPT, the protein stability index rises from 1.97 to 2.23.

Compared with KQGSMNFRFQPVLFPNAKKEHVPT, KQGFMNFRFIPVLFPNAKKEHVPT is lower in protein stability index: 1.98 for the first, 1.5 for the second.

Compared with KQGDMNFRFIPVLFPNAKKEHVPT, KQGPMNFRFIPVLFPNAKKEHVPT is higher in protein stability index: 2.4 for the first, 2.98 for the second.

First: KQGKMNFRFIPVLFPNAKKEHVPT
Second: KQGHMNFRFIPVLFPNAKKEHVPT
The protein stability index of the first is higher: 1.74 for the first, 1.68 for the second.

Compared with KQGLMNFRFIPVLFPNAKKEHVPT, KQGSMNFRFIPVLFPNAKKEWVPT is higher in protein stability index: 1.2 for the first, 1.81 for the second.

Going from KQGSMNFRFIPVLFPNAKKESVPT to KQGSMNFRFIPVLFPNAKKEYVPT, the protein stability index falls from 2.07 to 1.82.

Going from KQGSMNFRFIPVLFPNAKKEMVPT to KQGSMNFRFIPVLFPNAKKEEVPT, the protein stability index rises from 2.13 to 2.47.

Compared with KQGSMNFRFIPVLFPNAKKEAVPT, KQGSMNFRFIPVLFPNAKKEIVPT is lower in protein stability index: 2.19 for the first, 1.59 for the second.

Going from KQGSMNFRFIPVDFPNAKKEHVPT to KQGSMNFRFIPVAFPNAKKEHVPT, the protein stability index falls from 2.62 to 1.66.

Compared with KQGSMNFRFIPVFFPNAKKEHVPT, KQGSMNFRFIPVTFPNAKKEHVPT is lower in protein stability index: 2.04 for the first, 1.86 for the second.

Compared with KQGSMNFRFIPVSFPNAKKEHVPT, KQGSMNFRFIPVWFPNAKKEHVPT is lower in protein stability index: 2.14 for the first, 2.09 for the second.

Going from KQGSMNFEFIPVLFPNAKKEHVPT to KQGSMNFKFIPVLFPNAKKEHVPT, the protein stability index falls from 3.28 to 2.61.

Compared with KQGSMNFVFIPVLFPNAKKEHVPT, KQGSMNFHFIPVLFPNAKKEHVPT is higher in protein stability index: 2.02 for the first, 2.41 for the second.

Compared with KQGSMNFTFIPVLFPNAKKEHVPT, KQGSMNFSFIPVLFPNAKKEHVPT is higher in protein stability index: 2.04 for the first, 2.39 for the second.

Going from KQGSMNFQFIPVLFPNAKKEHVPT to KQGSMNFPFIPVLFPNAKKEHVPT, the protein stability index falls from 3.08 to 2.68.

Compared with KQGSMNFDFIPVLFPNAKKEHVPT, KQGSMNFRMIPVLFPNAKKEHVPT is lower in protein stability index: 3.3 for the first, 2.69 for the second.

Compared with KQGSMNFRVIPVLFPNAKKEHVPT, KQGSMNFRPIPVLFPNAKKEHVPT is higher in protein stability index: 2.77 for the first, 3.22 for the second.

First: KQGSMNFRDIPVLFPNAKKEHVPT
Second: KQGSMNFRTIPVLFPNAKKEHVPT
The protein stability index of the first is higher: 3.99 for the first, 3.66 for the second.

Going from KQGSMNFRNIPVLFPNAKKEHVPT to KQGSMNFRFIPVLFPNAKKEHAPT, the protein stability index falls from 3.56 to 2.22.

Going from KQGSMNFRFIPVLFPNAKKEHCPT to KQGSMNFRFIPVLFPNAKKEHGPT, the protein stability index rises from 2 to 2.4.

First: KQGSMNFRFIPVLFPNAKKEHEPT
Second: KQGSMNFRFIPVLFPNAKKEHWPT
The protein stability index of the first is higher: 2.19 for the first, 1.6 for the second.

Going from KQGSMNFRFIPVLFPNAKKEHNPT to KQGSDNFRFIPVLFPNAKKEHVPT, the protein stability index rises from 2.23 to 3.35.

First: KQGSKNFRFIPVLFPNAKKEHVPT
Second: KQGSNNFRFIPVLFPNAKKEHVPT
The protein stability index of the first is higher: 2.8 for the first, 2.44 for the second.

Going from KQGSPNFRFIPVLFPNAKKEHVPT to KQGSWNFRFIPVLFPNAKKEHVPT, the protein stability index falls from 2.1 to 1.8.

Compared with KQGSFNFRFIPVLFPNAKKEHVPT, KQGSQNFRFIPVLFPNAKKEHVPT is higher in protein stability index: 1.52 for the first, 2.65 for the second.

Going from KQGSVNFRFIPVLFPNAKKEHVPT to KQGSANFRFIPVLFPNAKKEHVPT, the protein stability index rises from 1.91 to 2.21.

First: KQGSMNFRFIPVLFYNAKKEHVPT
Second: KQGSMNFRFIPVLFNNAKKEHVPT
The protein stability index of the first is higher: 2.04 for the first, 1.87 for the second.

First: KQGSMNFRFIPVLFTNAKKEHVPT
Second: KQGSMNFRFIPVLFRNAKKEHVPT
The protein stability index of the first is higher: 2.54 for the first, 1.92 for the second.

Compared with KQGSMNFRFIPVLFLNAKKEHVPT, KQGSMNFRFIPVLFDNAKKEHVPT is lower in protein stability index: 2.43 for the first, 2.05 for the second.

Going from KQGSMNFRFIPVLFVNAKKEHVPT to KQGSMNFRFIPVLFSNAKKEHVPT, the protein stability index falls from 2.56 to 1.75.

Going from QQGSMNFRFIPVLFPNAKKEHVPT to IQGSMNFRFIPVLFPNAKKEHVPT, the protein stability index falls from 1.88 to 1.63.

First: CQGSMNFRFIPVLFPNAKKEHVPT
Second: DQGSMNFRFIPVLFPNAKKEHVPT
The protein stability index of the first is lower: 2.01 for the first, 2.02 for the second.

First: GQGSMNFRFIPVLFPNAKKEHVPT
Second: TQGSMNFRFIPVLFPNAKKEHVPT
The protein stability index of the first is lower: 2.19 for the first, 2.32 for the second.

Compared with MQGSMNFRFIPVLFPNAKKEHVPT, KQGSMNFRFIPVLFPNAKKEHVDT is higher in protein stability index: 1.94 for the first, 2.29 for the second.

Going from KQGSMNFRFIPVLFPNAKKEHVQT to KQGSMNFRFIPVLFPNAKKEHVIT, the protein stability index rises from 1.69 to 1.77.

Going from KQGSMNFRFIPVLFPNAKKEHVWT to KQGSMNFRFIPVLFPNAKKEHVET, the protein stability index falls from 2.58 to 2.19.

Compared with KQGSMNFRFIPVLFPNAKKEHVTT, KQGSMNFRFIPVLFPNAKKEHVFT is lower in protein stability index: 2.27 for the first, 1.79 for the second.

First: KQGSMNFRFIPVLFPNAKKEHVRT
Second: KQGSMNFRFIPVLFPNAKKEHVLT
The protein stability index of the first is lower: 2.05 for the first, 2.16 for the second.
